The text below walks through data of PMC12070368 (ACS Applied Nano Materials, 2025).

The assay addresses T1, Ebolavirus glycoprotein (EGP) of the Zaire strain (Zaire ebolavirus, UniProt Q05320 33-650).
T1 sequence: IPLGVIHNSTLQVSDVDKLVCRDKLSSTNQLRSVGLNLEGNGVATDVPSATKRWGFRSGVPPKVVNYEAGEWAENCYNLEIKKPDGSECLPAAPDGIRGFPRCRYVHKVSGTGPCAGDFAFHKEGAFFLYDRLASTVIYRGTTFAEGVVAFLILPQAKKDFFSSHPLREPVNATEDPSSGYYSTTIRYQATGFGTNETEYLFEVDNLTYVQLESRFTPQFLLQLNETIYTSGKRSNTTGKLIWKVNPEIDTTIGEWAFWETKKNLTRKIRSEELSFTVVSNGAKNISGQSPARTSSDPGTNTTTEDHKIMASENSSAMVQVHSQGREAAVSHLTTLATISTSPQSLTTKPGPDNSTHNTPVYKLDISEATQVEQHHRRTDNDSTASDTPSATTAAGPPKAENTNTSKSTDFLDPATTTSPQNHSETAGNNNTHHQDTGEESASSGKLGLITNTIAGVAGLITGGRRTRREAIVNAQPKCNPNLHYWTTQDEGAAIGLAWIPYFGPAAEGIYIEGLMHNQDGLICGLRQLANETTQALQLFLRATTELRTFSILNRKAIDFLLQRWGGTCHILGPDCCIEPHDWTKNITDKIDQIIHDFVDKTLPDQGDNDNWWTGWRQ
The conditions noted are these: both partners purified.

B1: TIM-1 (receptor, UniProt Q96D42 21-295, looked up)
chain: SVKVGGEAGPSVTLPCHYSGAVTSMCWNRGSCSLFTCQNGIVWTNGTHVTYRKDTRYKLLGDLSRRDVSLTIENTAVSDSGVYCCRVEHRGWFNDMKITVSLEIVPPKVTTTPIVTTVPTVTTVRTSTTVPTTTTVPMTTVPTTTVPTTMSIPTTTTVLTTMTVSTTTSVPTTTSIPTTTSVPVTTTVSTFVPPMPLPRQNHEPVATSPSSPQPAETHPTTLQGAIRREPTSSPLYSYTTDGNDTVTESSDGLWNNNQTQLFLEHSLLTANTTKG
Regarding B1, the ΔSPR turned out to be 35 nm.
